Data published in article PMC4523205.
Like-named read-outs stand apart in the source and are kept apart here.

Columns and labels:
[1] = target: gp41_(596-606) peptide with Cys604 substituted by Ala, N-terminal biotin (HIV-1) (UniProt P04578); experiment: SPR; BIAcore 4000; biotinylated 11mer and its alanine-substituted variants on a streptavidin chip; 7B2 (Fab by the legend) at 20 μg/ml; responses of the irrelevant antibody Synagis subtracted
[2] = target: rhesus macaque FcγR3A-1 (rhesus macaque) (UniProt A3RFZ7); experiment: SPR
rhesus macaque FcγR3A-1 (rhesus macaque), sequence (A3RFZ7 21-206): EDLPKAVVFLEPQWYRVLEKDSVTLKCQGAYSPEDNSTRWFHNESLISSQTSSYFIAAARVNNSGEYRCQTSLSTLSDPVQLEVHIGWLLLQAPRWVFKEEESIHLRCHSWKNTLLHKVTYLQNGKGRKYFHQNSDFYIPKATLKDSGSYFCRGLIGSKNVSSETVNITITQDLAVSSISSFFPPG

[3] = target: Env of HIV-1 BaL.B, on virions (HIV-1)
[4] = target: Env of HIV-1 SF162.B, on virions (HIV-1) (UniProt P19550)
[5] = target: human FcγRIIIa/CD16 (human) (UniProt O75015); experiment: SPR; mAb binding to recombinant purified Fc receptors; who was immobilised is not stated
[6] = target: rhesus macaque FcγR3A-1 (rhesus macaque) (UniProt A3RFZ7); experiment: as above
[7] = target: human FcγRI (CD64) (human) (UniProt P12314); experiment: as above
human FcγRI (CD64) (human), sequence (P12314 16-292): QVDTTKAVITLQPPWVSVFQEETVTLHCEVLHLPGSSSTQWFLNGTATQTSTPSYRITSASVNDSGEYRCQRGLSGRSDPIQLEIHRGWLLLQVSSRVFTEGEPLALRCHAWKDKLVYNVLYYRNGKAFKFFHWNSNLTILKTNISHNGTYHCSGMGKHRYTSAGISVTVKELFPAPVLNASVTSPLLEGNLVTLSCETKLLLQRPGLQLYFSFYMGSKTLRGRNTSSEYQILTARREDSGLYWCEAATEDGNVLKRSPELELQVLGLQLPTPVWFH

[8] = target: rhesus macaque FcγR3A-3 (rhesus macaque) (UniProt A3RFZ7); experiment: as above
rhesus macaque FcγR3A-3 (rhesus macaque), sequence (A3RFZ7 21-206): as the sequence (A3RFZ7 21-206) above

[9] = target: Env of SHIV-BaL, on virions (HIV-1 (env of SHIV-BaL))
7B2 Fab = experiment: SPR; conditions: for response: sensorgram read at ~140 seconds after starting injection of 7B2 Fab, parent: est. 1400, read off a plot
[10] = binding response at saturation (~140 seconds after starting injection of 7B2 Fab)

Substance | ratio to parent (7B2 Fab) | ratio to parent (7B2 Fab; [10]) | also measured
7B2 Fab | – | – | off-rate relative to the wild-type peptide (fold) [1]: 2.8 fold
7B2 IgG1_AAA | – | – | Kd [2]: 92.9 nM
7B2 IgG1_AAA (antibody) | – | – | neutralisation of HIV-1 BaL in peripheral blood monocytes differentiated into macrophages, ID50 [3]: 0.05 µg/mL; neutralisation of HIV-1 SF162 in macrophages, IC90 [4]: 0.2 not printed; Kd [5]: 1100 nM; Kd [6]: 68.7 nM; Kd [7]: 49 nM; Kd [8]: 147 nM; neutralisation of SHIV-BaL in the TZM-bl assay, IC50 [9]: > 50 µg/mL
A32 IgG1_AAA | – | – | Kd [2]: 46.2 nM
A32 IgG1_AAA (antibody) | – | – | Kd [6]: 50 nM; koff [6]: 0.0094 s⁻¹; kon [6]: 190000 M⁻¹ s⁻¹; Kd [8]: 56 nM; koff [8]: 0.0061 s⁻¹; kon [8]: 110000 M⁻¹ s⁻¹
gp41_(596-606) peptide, wild type, N-terminal biotin C598A | 25 | 0.16 | response (7B2 Fab): 200 RU
gp41_(596-606) peptide, wild type, N-terminal biotin G597A | 5.15 | 0.6 | –
gp41_(596-606) peptide, wild type, N-terminal biotin G600A | 0 | 0 | –
gp41_(596-606) peptide, wild type, N-terminal biotin I603A | 31.7 | 0.32 | response (7B2 Fab): 430 RU
gp41_(596-606) peptide, wild type, N-terminal biotin K601A | 0.59 | 1.24 | –
gp41_(596-606) peptide, wild type, N-terminal biotin L602A | 4.65 | 0.38 | –
gp41_(596-606) peptide, wild type, N-terminal biotin S599A | 21.4 | 0.64 | response (7B2 Fab): 880 RU
gp41_(596-606) peptide, wild type, N-terminal biotin T605A | 0.79 | 0.99 | –
gp41_(596-606) peptide, wild type, N-terminal biotin T606A | 1.11 | 0.89 | –
gp41_(596-606) peptide, wild type, N-terminal biotin W596A | 8.65 | 0.83 | –
